Experimental data as given in patent US20040167074A1, “Therapeutic applications of mFLINT polypeptides” (priority 1998, published 2004).

Legend:
[1] = test system: Mouse T cell hybridoma cells (LTT cells); test: Murine FasL-mediated apoptosis of LTT cells (Annexin V assay); format: cell-based; conditions: test agent 1 μg/ml
Protocol: LTT,2,14,11 cells (LTT cells), see Glasebrook, Eur.J.Immunol. 17: 1561-65 (1987), were used in this Annexin V assay. On the first day, a 96 well plate was coated with anti-CD3 (2C11) at a serial dilutions. On the second day, 100,000 LTT cells were added, in 50 μl of medium per well, along with 50 μl of medium to the control wells and 50 μl of medium containing:
Group 1. solubleFas (sFas)(FasFc, mouse), with a final concentration of 1 μg/ml
Group 2. mFLINT (human), with a final concentration of 1 ug/ml
Group 3. anti-FasL (mouse), with a final concentration of 1 ug/ml.
These then were incubated overnight, at 37° C., in 5% CO2;
On the following day (Day 3), the cells were collected from each well, washed and labeled with Annexin V and PI, following Flow cytometry analysis.

LIGHT = LIGHT cell surface binding assay by flow cytometry; conditions: LIGHT expressing cells preincubated with 10 fold excess of non tagged mFLINT
Protocol: To confirm the dot blot binding between LIGHT and mFLINT, 293 cells were transiently transfected with LIGHT expression construct overnight. On the next day, cells were detached and incubated with mFLINT-Flag on ice. […] As a control we used vector transfected cells. To make sure that the binding was specific, a competition assay with 10 fold access of untagged mFLINT was performed.
More particularly, 6 well dishes of cells were transfected as above. Both vector and m-LIGHT expressing cells were provided. Cells were detached from the plates by vigorous pipetting with a P100 Pipettor. Then, in PBS/BSA, 0.1%, cells were exposed to one of the following combinations, set forth in a-d.
a. GST/flag, mFLINT/flag, or HVEM at 20 nM;
b. FLINT/flag at 20 nM+GST/flag or mFLINT or HVEM at 200 nM;
c. FLINT/flag at 20 nM+HVEM+anti-human FAS ligand at 200 n-M;
d. anti-human FAS ligand-biotin at 1 μg/ml
Cells were incubated on ice for 30 minutes and washed with PBS/BSA, 0.1%. Cells then were exposed either to anti-human IgG-biotin, 1 μg/ml (for detection of HVEM), or to M2-biotin, 2 μg/ml (for detection of flag conjugates). Cells were incubated on ice for 30 minutes and washed with PBS/BSA, 0.1%. Thereafter, cells were exposed to streptavidin Alexa 488 (SIGMA) at a 1:1000 dilution. Again, cells were incubated on ice for 30 minutes and washed with PBS/BSA, 0.1 1%. Cells were analyzed using a FACSORT flow cytometer (Decton Dickinson) to determine binding.

BALB/c mice = test: LPS/galactosamine liver damage and sepsis model, survival; format: in vivo, mouse; conditions: for survival of mice: FIG. 5, mFLINT 200 μg i.v.
Protocol: Specifically, the activity of the polypeptides of the present invention against acute inflammation and apoptosis was determined using the following procedure. Briefly, BALB/c mice (Harlan) per each experimental group were given intravenous injections (the lateral tail vein) of 6 mg of D(+)-Galactosamine (Sigma, 39F-0539) in 100 μl of PBS (GIBCO-BRL) and 3 μg of Lipopolysaccharide B E. coli 026:B6 (LPS) (Difco, 3920-25-2) in 100 μl of PBS. The LPS was administered, via i.v. injection, 5 minutes after the galactosamine, which was administered i.v. […] C. F. et al J. Immunol. 1989. 142: 3884), and Anti-mouse Fas Ligand (500 μg, PharMingen, M024301) at 0, 2, 4, 6 hour-point respectively. The survival rates of the mice were determined 24 and 48 hours after LPS injection.

osteoclasts = test: Murine osteoclast differentiation assay (TRAP staining); format: cell-based, mouse; conditions: mean and standard error of 6 wells
Protocol: Male Balb/C mice (4-8 weeks old) were euthanized with CO2, the femurs removed, and the marrow flushed out of the femurs with growth medium. Bone marrow cells were pelleted by centrifugation at 500×g for 6 min. and resuspended in the growth medium (RPMI 1640 plus 5% heat inactivated fetal bovine-serum and 1% antibiotic-antimycotic solution). The marrow population (5×10^4 cells/cm^2) was seeded in tissue culture dishes in which BALC cells (a stable cell line derived from neonatal mouse calvariae, 1.5×10^4 cells/cm^2) had been plated 2 h prior to addition of bone marrow. The cells were cultured for 7 days in a humidified incubator at 37° C. with 5% CO2 with medium changes on days 3 and 5. Cultures were treated with or without 10^−8M 1,25-(OH)2D3 on days 0, 3, and 5. In addition, -the cells were treated with or without secreted mFLINT protein purified from the conditioned medium of cells transfected with mFLINT gene (FIG. 1). Following 7 days of culture, the cells in 24-well cluster dishes were fixed with formalin (3.7% for 10 min) and then stained for tartrate-resistant acid phosphatase (TRAP) using a modification of the method described by Graves, L and Jilka R L, J Cell Physiology 145:102 1990. The number of osteoclasts (TRAP-positive cells containing 3 or more nuclei) was quantitated.

[2] = test system: bone marrow progenitor cells; test: CFU assay of bone marrow cells expanded in vitro with SCF and IL-6; format: cell-based, mouse; conditions: FIG. 9, mFLINT 1 ug/ml, 3 days with SCF and IL-6
Protocol: A—Bone marrow cells from irradiated mice—This experiment was designed to determine whether mFLINT could improve the recovery of murine hematopoietic progenitor cells from irradiation, by forcing in vitro expansion with hematopoietic cytokines. Mice were injected with 3 mg of 5-flouro-uracil, i.p., and four days later, femurs were removed and flushed to isolate bone marrow (BM) cells. 1×10^6 BM cells were seeded in each well of a 24 well tray in triplicate in Iscoves modified dulbeccos media (IMDM)+10% FBS and were stimulated for 3 days with the cytokines stem cell factor (SCF) and IL-6, in the presence or absence of mFLINT (1 ug/ml). After a 3-day in vitro expansion period, 5×10^3 cells were plated out in triplicate for the CFU assay.

B1: mFLINT: mature FLINT without leader peptide (FIG. 3), soluble TNFR superfamily member, made according to Examples 8 and 9 (protein)
chain: VAETPTYPWRDAETGERLVCAQCPPGTFVQRPCRRDSPTTCGPCPPRHYTQFWNYLERCRYCNVLCGEREEEARACHATHNRACRCRTGFFAHAGFCLEHASCPPGAGVIAPGTPSQNTQCQPCPPGTFSASSSSSEQCQPHRNCTALGLALNVPGSSSHDTLCTSCTGFPLSTRVPGAEECERAVIDFVAFQDISIKRLQRLLQALEAPEGWGPTPRAGRAALQLKLRRRLTELLGAQDGALLVRLLQALRVARMPGLERSVRERFLPVH
modifications: glycosylated
With B1 the “% Annexin V Positive” value ([1]; Anti CD3 0) was 26.47%, the “% Annexin V Positive” value ([1]; Anti CD3 0.11) was 33.24% and the “% Annexin V Positive” value ([1]; Anti CD3 0.33) was 35.89%. For the same molecule, the “% Annexin V Positive” value ([1]; Anti CD3 1) was 34.41%, the “competition of mFLINT-Flag binding” value (LIGHT) was “completely reversed to baseline peak” and the survival of mice (BALB/c mice; administered 2 hours before LPS/GalN) was 100%. For the same molecule, the survival of mice (BALB/c mice; administered 4 hours after LPS/GalN, survival at 48 hours) was 80%, the “animals survived to 48 hours” value (BALB/c mice; FIG. 6, 50 ug mFLINT) was “about 70%” and the “animals alive 48 hours after LPS/GalN” value (BALB/c mice; FIG. 6, 400 ug i.p., 2 hours before LPS/GalN challenge) was 100%. For the same molecule, the survival (BALB/c mice; FIG. 7, 1 ug iv, 4-hour post-LPS/GalN) was “about 2%”, the survival (BALB/c mice; FIG. 7, 5 ug iv, 4-hour post-LPS/GalN) was 20% and the survival (BALB/c mice; FIG. 7, 10 ug iv, 4-hour post-LPS/GalN) was 40%. The survival (BALB/c mice; FIG. 7, 50 ug iv, 4-hour post-LPS/GalN) was 80%, the survival (BALB/c mice; FIG. 7, 100 μg mFLINT IP, 4 hours after LPS/GalN) was 80% and the survival (BALB/c mice; FIG. 7, 100 μg mFLINT iv, 4 hours after LPS/GalN) was 100%. The “effect on survival, ip compared with iv” value (BALB/c mice; FIG. 7, 100 μg mFLINT, 12 or 2 hours before LPS/GalN) was “the same”, the animals survived (BALB/c mice; IP 200 μg mFLINT, 2 hours post-challenge with 3 μg LPS) was 100% and the animals survived (BALB/c mice; IP 200 μg mFLINT, 6 hours post-challenge with 3 μg LPS) was 60%. For the same molecule, the animals survived (BALB/c mice; IP, 4 hours post-challenge with 3 μg LPS (mFLINT 200 μg)) was 73%, the Osteoclasts/well (osteoclasts; FLINT 0.01 ng/ml, control 145.50) was 40.50 ± 2.39 Osteoclasts/well and the Osteoclasts/well (osteoclasts; FLINT 0.10 ng/ml) was 65.50 ± 3.33 Osteoclasts/well. For the same molecule, the Osteoclasts/well (osteoclasts; FLINT 1.00 ng/ml) was 97.50 ± 3.10 Osteoclasts/well, the Osteoclasts/well (osteoclasts; FLINT 10.00 ng/ml) was 170.17 ± 8.26 Osteoclasts/well and the Osteoclasts/well (osteoclasts; FLINT 100.00 ng/ml) was 335.00 ± 8.90 Osteoclasts/well. The CFU-GEMM colonies ([2]; control 750, p<0.007) was 3,000 colonies/3×10^6 stimulated BM cells, the CFU-GM colonies ([2]; control 8,000, p<0.039) was 15,000 colonies/3×10^6 stimulated BM cells and the CFU-E colonies ([2]; control 15,000, p<0.003) was 33,000 colonies/3×10^6 stimulated BM cells.
